Results reported in article PMC7973117.

Assays:
[1] = target: heteropentameric α1β mutated (α1βY240A) glycine receptor (rat) (UniProt P07727)
[2] = target: heteropentameric α1β wild type glycine receptor (rat) (UniProt P07727)

Substance: Interleukin-1β (from UniProt P01584 117-269) (ligand)
- current decay time constant (τ) of glycine (50 μM)-activated currents after perfusion of IL-1β (10 ng/ml); whole-cell patch clamp, transfected HEK293T cells (Figure 4A) [1]: 3370 ms
- current decay time constant (τ) of glycine (50 μM)-activated currents after perfusion of IL-1β (10 ng/ml); whole-cell patch clamp, transfected HEK293T cells (Figure 4A) [2]: 35400 ms
